The DeepSol protein solubility set

Experiment: soluble on expression in E. coli; label from the status in PepcDB or PDB records

Sequence	soluble on expression in E. coli
MENMENDENIVVGPKPFYPIEEGSAGTQLRKYMERYAKLGAIAFTNAVTGVDYSYAEYLEKSCCLGKALQNYGLVVDGRIALCSENCEEFFIPVIAGLFIGVGVAPTNEIYTLRELVHSLGISKPTIVFSSKKGLDKVITVQKTVTTIKTIVILDSKVDYRGYQCLDTFIKRNTPPGFQASSFKTVEVDRKEQVALIMNSSGSTGLPKGVQLTHENTVTRFSHARDPIYGNQVSPGTAVLTVVPFHHGFGMFTTLGYLICGFRVVMLTKFDEETFLKTLQDYKCTSVILVPTLFAILNKSELLNKYDLSNLVEIASGGAPLSKEVGEAVARRFNLPGVRQGYGLTETTSAIIITPEGDDKPGASGKVVPLFKAKVIDLDTKKSLGPNRRGEVCVKGPMLMKGYVNNPEATKELIDEEGWLHTGDIGYYDEEKHFFIVDRLKSLIKYKGYQVPPAELESVLLQHPSIFDAGVAGVPDPVAGELPGAVVVLESGKNMTEKEVMDYVASQVSNAKRLRGGVRFVDEVPKGLTGKIDGRAIREILKKPVAKM	soluble
GPGSMPVEQLEEENKTLRTKVRVLEEELKHRNAECVRLRDELQLLSGVMRENDSQRQLIDTLREELEFSRKSHAEAVEALNVGEKQRRNEEHRQRMARVQLQLSTSGMDVKTGTSSQAGGAVLPVVTGGVVPTSSGVEIICKSSNISSLGFAPVQRPPDFAGSAYGQFYRGVANSADLVEEEDEVSRLMAMAKDGAMLDIKHAEVTDGEENELLERYKALKLWKPN	not soluble
MAHHHHHHMECGYRNEGKFHQVVLNIKEKIEKHDLSKWKDIVKPEEGPKYDEYFERLLRGGTPEKDSHEEDSNEKHTHETHDLPAEQAEETPPEVCEPPGDEKNKTEFQLNKEFFDKISNKEKFYFLLNIKEMMETSWLLAQKRLEGIKLEEKSKPVNVQDLLNYSQKIADTTCAPPECDNINDKIMHQEYYPNYHFLNFVNVEEIHLSKLFQLQKYSTVCFPPIITIQEGKDNMLAIDITCSTPHATIYYRMNDDPNEQIYNTDDKPQIRKRKKVNVYAWSVKDGHIKSRVSCISKSYKVEEDDSFPLSDNLPNKEQGEQQTGSSKMGVEANAPGKPSQITNVFKNLGFLLSRKKEKTEEPSSNGESSSEG	not soluble
MSQVTADALTAQVVAEYLYEHPDFFQHHPHLVERLALPTQTGAVSLAHVQLARQRQRIDSLEEEITALMSLAANNDRTFHEFMDLQEQILKCSSLQAVLHAIEAKARELNLRAYVRLLQRHDEKYGLASEDWQRFATNHFNGKSAYLGRLRQADRQRLLGDRPAPEMGSYVVLPLQRQAPLGILAFASEDGGHFQPSMDTLFLRHLALVLAHLIETLPWQSHDEERRTHPAS	not soluble
MGSDKIHHHHHHMKKVIPALALVLLTTGLVGCDRVEPGNVGIKVNKLGDDKGVGEVVGVGRYWTGWNTEVYIFPTFKQMKTYDEPFSFQMSDGTTIGYHIGVAYKVDPSKVTTVFQTYRKGVDDITDTDLRQKIADALNRLASKMTTDKFIDGGKSELLDAALKDIQEEMTPIGIQVMSLSYVGKPEYPPTVIDSINAKVTANQKTLQCEQEVKQREAEANMLRAEAAGQADAIRTKAQAEADAIRLRGEALRQNPNVMELEAINKWNGTLPQYMTSGANTPFIQVK	not soluble
LCPDAVAGIAVAAPHIYVEDITVANIAVALRAYRETTLRDRLARYHDDVDSTFASWTDTWLDPAFRQWNIEAYLPAITCPMLAMQGVDDEYGTLEQIRGIRRLAPQTRLLEIQDCGHSPHKDQPELVTRALAGFV	not soluble
MAHHHHHHMQKTILQILREQDDASSSCVLALLKGNASFQCLSKSEGEDILKRDNEDAEKLSDGIRIAIRKGIVSGKPDVSPVNKLNVVGLSAQEVTDKIVAALPSKNGNVIILQGLSGTGKGTTVSKLKDALPKCVTWSNGNIFRSYTYLCNEVLAAQGKEITEESLTDELLSSVEKRVTFVKCEDGMFHTMLDGTRRVADVQNTLLKTPLISSKVPTVAQQTQGEVIRFGAGAVKQLSADGYNVILEGRSQTLDYISSPLRFELIIPDVEVLGQRRAAQRVMAKALEMLDDSASDEEVSKVLVKAVETLQ	soluble
PRLWEGQDVLARWTDGLLYLGTIKKVDSAREVCLVQFEDDSQFLVLWKDISPAAL	soluble
MEKGYRLLERIELGEPKNCYEKVVSHKHLIESIHLHLADLLNTHSGNAMIDSEYGLPDFNDVLSNNTNLVRHIQKNITATIERFEPRLLNVEVHYREDHHNPLQLGFGIRGEVSHNGGKVPMSIDVYMGTD	not soluble
MAHHHHHHMKKKNNNKLHYLDSKGKLYTSGLRSDTKEKYGEIPSSNKNHNLIEKYNELQSLLSKEEEKYDFVKNELGDLQKQKDLLKWHLCNNIKKLSMKRSDYKFKTETKSKLESKLKSLKDMNKIHKFEHDTLEELVHKMEQELETKMYIKNDIENIFNECINKKDEYLKDITQERISVFKERKKRQNQLQKLLLIMKQENNKNYNINYLKKYESNLMNEINSYKNYKDFETKIAMDLIDDHSLNDLYVT	not soluble
SPSAQELKEQGNRLFVGRKYPEAAACYGRAITRNPLVAVYYTNRALCYLKMQQPEQALADCRRALELDGQSVKAHFFLGQCQLEMESYDEAIANLQRAYSLAKEQRLNFGDDIPSALRIAKKKRWNSIEERRIHQESELHSYLTRLIAAERERELEECQRNHEGHEDDGHIRAQQACIEAKHDKYMADMDELFSQVDEKRKKRDIPDYLCGKISFELMREPCITPSGITYDRKDIEEHLQRVGHFNPVTRSPLTQEQLIPNLAMKEVIDAFISENGWVEDY	soluble
MATLYDVPPEELIEALTETLADEDDIEAPDWAEFTKTGVDRELPPEQEDFWTRRAASLLRKVAVDGPVGVNALRSEYGTSKQGTTRYRVRPHQKTKGSGNIIRTALQQLEDAGYVETSENDGRRVTGDGRSLLDDTAGDLLTELDRPELERYALEHHHHHH	soluble
RTDTIMVLNVGNKDKKIKMVSFMRDTLVNIKGVSADNYSYDNKLNSAFNIGEQDNNQGAELMRQTLKRNFDIDIKYYVMVDFQTFAEAIDTLFPNGVEINAKFATVGGEAVDSVEVPDDLNMKDGVVPNQTISVGKQKMDGRTLLNYARFRKDDEGDFGRTKRQQQVMSAIMSQIKD	not soluble
MARLARLGEPFALATVVASSGSSPRKAGAKMLIRGDGSALGTVGGGHVEQDTLAAARASLAEGAPRTLEFVLTEEHGYACGGSMSVFIEPQGRRPLLVMFGAGHVGRAVTALAHGCGFRVIVVDERPEYAVPALLPGADEIVCVPVGAAFARLTLDRESFAVIATPGHVHDFDAVRGCLATEVGFIGLLGSRRKREALMKTLTEEGYEAGRQARVVTPVGLDIGAQTPEEIAVSIVGQLVKLRRQA	not soluble
MKIEVVSALPHSTVHSAVLSRRHRSVICAGPYEVLPLEGCSEPLPSTSTLSELPIECLRLSTDERTIGAATNAILKVADIITGHEVRNLTGHTLPITSLAASKFNPYCWYTGSSDCDWTQWDTRMNPSKIFGSKTPGVVRSIALSPGDRYVAVGTDETIQIFDARQREFIKTFNCSGHALELHPSDVLLSSVGHDRIVRFFCLETFEMISQSDPFLDDIQASAFDTHVMIAATNDSINLLTWEPCCDILTTVPLKNVEKVVNVNANGLDLDFICIGDNTERLEMRTYAIEELLSYSPSHELCGSIYEEDEDVDNSPIDEVKALPELTELSNLPPRSPGLSCEETETSASPVNSSSSHSSPTSPVKPAPVKHRSASQKLPGKSTKTLNPKPAGSTRSVTPVSTKPPRTFGTAKSVIVSSKPSLSGYNNRANPSPSMSDLRTTKSMAGSTTSLLSERAPKKRSTSSRRNQEPITITYIGRPRTPSEGDVASTVSSSTSRNRRPSPSVAKKTSPPSIYAITSSPAKRASSTASGPTARRQNSTSSVTSTTSAKTPVGVWGACIETVHDIGIVAKKENRNIRRLKMLTSRRTSNVDIPPEVCSDEQLVLTATRILSRRNDWSLNSCHAYLPVIIDNIASVDVTNRAIALEGLAAIADTLGERLVKFASMNSHRIGVDVAAEERAEKAKACVQHLRSLVKKRDWYYKQLDEPSILKLDPILELLKKI	not soluble
MISVNDFRTGLTIAVDNGLWQVLDFQHVKPGKGAAFVRSKLRNLRTGSVQEKTFRAGEKVEKAHIENRRMQYLYASGEAHVFMDNGTYEQIELGEKQIERELKFLKENMEVSIMTYQGEVLGVELPNTVELQVTETEPGIKGDTASNVTKPATLETGLVVQVPIFINEGEMLIINTGEGKYVSRA	soluble
DPSKGRWVEGITSEGYHYYYDLISGASQWEKPEGFQGDLKKTAVKTVWVEGLSEDGFTYYYNTETGESRWEKPDD	soluble
